Data on 2 molecules can be found in patent US20240033354A1 (University of California, published 2024).

Assay [1] has as its target T1, TcdB1 holotoxin (recombinant full-length TcdB1, VPI10463 strain, expressed in Bacillus megaterium) (Clostridium difficile, VPI10463 strain, UniProt P18177 1-2366).
T1 construct: also called TcdB1 (1-2366)-holotoxin
Briefly: two-step pull-down, first step (FIG. 15C).

For assay [2], the target named is TcdB2 (recombinant full-length, R20292 strain [sic], expressed in Bacillus megaterium) (Clostridium difficile, R20291 strain …, UniProt P18177 1-2366).
Assay [3] addresses T1, TcdB1 holotoxin (recombinant …).

B1: CSPG4^mini (CSPG4 residues 30-764) (receptor)
chain: ASFFGENHLEVPVATALTDIDLQLQFSTSQPEALLLLAAGPADHLLLQLYSGRLQVRLVLGQEELRLQTPAETLLSDSIPHTVVLTVVEGWATLSVDGFLNASSAVPGAPLEVPYGLFVGGTGTLGLPYLRGTSRPLRGCLHAATLNGRSLLRPLTPDVHEGCAEEFSASDDVALGFSGPHSLAAFPAWGTQDEGTLEFTLTTQSRQAPLAFQAGGRRGDFIYVDIFEGHLRAVVEKGQGTVLLHNSVPVADGQPHEVSVHINAHRLEISVDQYPTHTSNRGVLSYLEPRGSLLLGGLDAEASRHLQEHRLGLTPEATNASLLGCMEDLSVNGQRRGLREALLTRNMAAGCRLEEEEYEDDAYGHYEAFSTLAPEAWPAMELPEPCVPEPGLPPVFANFTQLLTISPLVVAEGGTAWLEWRHVQPTLDLMEAELRKSQVLFSVTRGARHGELELDIPGAQARKMFTLLDVVNRKARFIHDGSEDTSDQLVLEVSVTARVPMPSCLRRGQTYLLPIQVNPVNDPPHIIFPHGSLMVILEHTQKPLGPEVFQAYDPDSACEGLTFQVLGTSSGLPVERRDQPGEPATEFSCRELEAGSLVYVHRGGPAQDLTFRVSDGLQASPPATLKVVAIRPAIQIHRSTGLRLAQGSAMPILPANLSVETNAVGQDVSVLFRVTGALQFGELQKQGAGGVEGAEWWATQAFHQRDVEQGRVRYLSTDPQHHAYDTVENLALEVQ
Regarding B1, in assay [1], the binding result is given as “binds”.

B2: Repeat1-Fc (CSPG4 Repeat1, residues 410-551, fused to the N-terminus of the Fc fragment of a human IgG1) (Fc fusion)
chain: ELPEPCVPEPGLPPVFANFTQLLTISPLVVAEGGTAWLEWRHVQPTLDLMEAELRKSQVLFSVTRGARHGELELDIPGAQARKMFTLLDVVNRKARFIHDGSEDTSDQLVLEVSVTARVPMPSCLRRGQTYLLPIQVNPVND
Take B2: in assay [2], the Kd – broadly, the concentration at which binding is half-saturated – was around 5.4 nM; the koff (as a rule, a measure of how fast the partners let go of each other) is around 4.63e-05 s⁻¹; the kon (as a rule, a measure of how fast the partners come together) is around 8340 M⁻¹ s⁻¹. In addition, in assay [3], the Kd is around 15.2 nM, the koff is around 0.000108 s⁻¹ and the kon is around 7060 M⁻¹ s⁻¹.
